Assay results: patent publication US20240360208A1

Experiments:
[1] = target: biotinylated human single chain FcRn (human) (UniProt P55899); experiment: SPR Biacore 8K, sc huFcRn on SA chip, 50 nM antibody, 25 C, pH 5
[2] = target: biotinylated human single chain FcRn (human) (UniProt P55899); experiment: SPR Biacore 8K, sc huFcRn on SA chip, 50 nM antibody, 25 C, pH 6
[3] = target: biotinylated human single chain FcRn (human) (UniProt P55899); experiment: SPR Biacore 8K, sc huFcRn on SA chip, 50 nM antibody, 25 C, pH 7.4
[4] = target: monomeric Fcγ receptor FcγRIIIa (human) (UniProt P08637); experiment: SPR T200, Protein L capture, FcγR at 5 µg/ml, 25 C, pH 7.4
Chain of monomeric Fcγ receptor FcγRIIIa (human) (P08637 17-208 limits assumed): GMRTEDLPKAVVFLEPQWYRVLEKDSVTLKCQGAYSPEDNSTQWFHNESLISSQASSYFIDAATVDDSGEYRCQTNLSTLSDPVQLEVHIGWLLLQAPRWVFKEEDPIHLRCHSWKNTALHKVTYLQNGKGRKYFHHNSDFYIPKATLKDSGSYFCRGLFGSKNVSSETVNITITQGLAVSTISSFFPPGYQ

[5] = target: monomeric Fcγ receptor FcγRIIa (human) (UniProt P12318); experiment: as above
Chain of monomeric Fcγ receptor FcγRIIa (human) (P12318 34-217 limits assumed): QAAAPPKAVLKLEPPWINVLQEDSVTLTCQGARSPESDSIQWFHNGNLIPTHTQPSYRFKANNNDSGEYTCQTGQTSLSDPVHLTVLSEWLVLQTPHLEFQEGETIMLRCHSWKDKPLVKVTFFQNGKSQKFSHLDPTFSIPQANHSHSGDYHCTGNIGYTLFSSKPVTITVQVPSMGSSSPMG

[6] = target: monomeric Fcγ receptor FcγRIIb (human) (UniProt P31994); experiment: as above
Chain of monomeric Fcγ receptor FcγRIIb (human) (P31994 43-217 limits assumed): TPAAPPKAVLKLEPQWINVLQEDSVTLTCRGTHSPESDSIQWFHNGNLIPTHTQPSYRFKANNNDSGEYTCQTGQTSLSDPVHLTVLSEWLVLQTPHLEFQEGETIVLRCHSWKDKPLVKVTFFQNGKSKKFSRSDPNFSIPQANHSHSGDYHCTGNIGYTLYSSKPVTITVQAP

[7] = target: human CCL2 (MCP1) - wild type (wt) (human) (UniProt P13500); experiment: cell-based or functional assay

Chain of biotinylated human single chain FcRn (human) (P55899 24-297 limits assumed, chain 1 of 2): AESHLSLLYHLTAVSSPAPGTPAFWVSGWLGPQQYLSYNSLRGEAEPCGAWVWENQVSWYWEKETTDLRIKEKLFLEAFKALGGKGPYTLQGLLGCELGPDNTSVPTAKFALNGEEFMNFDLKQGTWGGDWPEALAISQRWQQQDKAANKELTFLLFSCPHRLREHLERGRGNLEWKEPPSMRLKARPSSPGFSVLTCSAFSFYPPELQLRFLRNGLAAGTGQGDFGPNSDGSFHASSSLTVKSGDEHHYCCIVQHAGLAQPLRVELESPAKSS
Chain of biotinylated human single chain FcRn (human) (chain, as listed by the source limits assumed, chain 2 of 2): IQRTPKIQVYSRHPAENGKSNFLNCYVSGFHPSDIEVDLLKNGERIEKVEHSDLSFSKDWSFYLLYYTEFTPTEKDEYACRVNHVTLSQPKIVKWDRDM

Substance	Binding amount of Ab (RU) per 1RU of FcRn-surface [1] [RU per RU]	Binding amount of Ab (RU) per 1RU of FcRn-surface [2] [RU per RU]	Binding amount of Ab (RU) per 1RU of FcRn-surface [3] [RU per RU]	binding amounts of hFcγRs (RU) per 1 RU Ab [4] [RU per RU]	binding amounts of hFcγRs (RU) per 1 RU Ab [5] [RU per RU]	binding amounts of hFcγRs (RU) per 1 RU Ab [6] [RU per RU]	THP1 chemotaxis [fold change compared to IgG control] [7] [fold]
CNTO888 (antibody)	0.9	0.35	0	0.001	0.003	0	
human CCL2/JE/MCP-1 Antibody (R&D Systems Cat #MAB279)							3.7
